# Measurements reported in the DeepSol protein solubility set.
# Test: soluble on expression in E. coli; label from the status in PepcDB or PDB records
row,Sequence,soluble on expression in E. coli
1,MGHHHHHHSHMAASRNGFEAVEAEGSAGCRGSSGMEVVLPLDPAVPAPLCPHGPTLLFVKVTQGKEETRRFYACSACRDRKDCNFFQWEDEKLSGARLAAREAHNRRCQPPLSRTQCVERYLKFIELPLTQRKFCQTCQQLLLPDDWGQHSEHQVLGNVSITQLRRPSQLLYPLENKKTNAQYLFADRSCQFLVDLLSALGFRRVLCVGTPRLHELIKLTASGDKKSNIKSLLLDIDFRYSQFYMEDSFCHYNMFNHHFFDGKTALEVCRAFLQEDKGEGIIMVTDPPFGGLVEPLAITFKKLIAMWKEGQSQDDSHKELPIFWIFPYFFESRICQFFPSFQMLDYQVDYDNHALYKHGKTGRKQSPVRIFTNIPPNKIILPTEEGYRFCSPCQRYVSLENQHCELCNSCTSKDGRKWNHCFLCKKCVKPSWIHCSICNHCAVPDHSCEGPKHGCFICGELDHKRSTCP,soluble
2,AIAASGKRKGLSFDDKKTRLLELFNETCDFYTLKELEKIAPKLKGIITQSVKDVLQSLVDDDLVNSDKCGVQTIYWCLPSEAVAKRQRRLDALQQQLAEKRQKLTALQRQLVQVQAGREDSVERTAVLERLAACEAAWRERQRTLESYLECDPDVLAQRETETKTLIEQANRWTDNLYVIRSYVQRNLGVDLDLFDQQFELKPALQYLE,soluble
3,MGSDKIHHHHHHMVRLRPYRSCDAKYIVTWISSEEEFVKWCANLITYPFTEESMNKIQESFENNEKGWLFTAIDKKGTPIGFMSMSKADYENDSVHLGFIIVDSSKRSSGFGKQMINQAIKYAFEILNVSRVTLKVFDNNSTAHYCYQNVGFVDEKYMEKEFPYKDEMWGCYCMAIQK,not soluble
4,MSITQYLTEEHRKCDQIYAEVEKAVNEGNWEKAKELFKEFKEKTLLHFKKEEEVLFPEFEQRTGIVMGPTQVMRMEHDQARELLERMEKALEEKNKDEFLSLGESLMILIQQHNMKEEQILYPMSDQNLNAEKMVSKMAELGEV,not soluble
5,MAHHHHHHMRSLPNIIVTGVPGVGKTTLCEELVEVINKELQEGQQAEPANQMKHLNLSKVIKEERLYEEFDDQLDATIYSNDMVNEKMEKLKLENGGYIIDFHDVDFLEQKELIDHIFLLTTSTNKLYERLEKRNYAKEKIKNNIECEIFQVIKEDILTFYNDPSIFDELGNNDMEQYESNLQLIKGWVLSWAKSGEALPR,soluble
6,MGSSHHHHHHSSGLEVLFQGPAMATKKVHIISHSHWDREWYMAYEQHHMRLINLIDDLLEVFQTDPDFHSFHLDGQTIILDDYLKVRPEREPEIRQAIASGKLRIGPFYILQDDFLTSSESNVRNMLIGKEDCDRWGASVPLGYFPDTFGNMGQTPQLMLKAGLQAAAFGRGIRPTGFNNQVDTSEKYSSQFSEISWQGPDNSRILGLLFANWYSNGNEIPTTEAEARLFWDKKLADAERFASTKHLLMMNGCDHQPVQLDVTKAIALANQLYPDYEFVHSCFEDYLADLADDLPENLSTVQGEITSQETDGWYTLANTASARIYLKQANTRVSRQLENITEPLAAMAYEVTSTYPHDQLRYAWKTLMQNHPHDSICGCSVDSVHREMMTRFEKAYEVGHYLAKEAAKQIADAIDTRDFPMDSQPFVLFNTSGHSKTSVAELSLTWKKYHFGQRFPKEVYQEAQEYLARLSQSFQIIDTSGQVRPEAEILGTSIAFDYDLPKRSFREPYFAIKVRLRLPITLPAMSWKTLALKLGNETTPSETVSLYDDSNQCLENGFLKVMIQTDGRLTITDKQSGLIYQDLLRFEDCGDIGNEYISRQPNHDQPFYADQGTIKLNIISNTAQVAELEIQQTFAIPISADKLLQAEMEAVIDITERQARRSQEKAELTLTTLIRMEKNNPRLQFTTRFDNQMTNHRLRVLFPTHLKTDHHLADSIFETVKRPNHPDATFWKNPSNPQHQECFVSLFDGENGVTIGNYGLNEYEILPDTNTIAITLLRSVGEMGDWGYFPTPEAQCLGKHSLSYSFESITKQTQFASYWRAQEGQVPVITTQTNQHEGTLAAEYSYLTGTNDQVALTAFKRRLADNALITRSYNLSNDKTCDFSLSLPNYNAKVTNLLEKDSKQSTPSQLGKAEILTLAWKKQ,soluble
7,MNGIKTGLGITPGEHIISADSALSRNIRQCFCLSCHGRLILQTDAQGAWFEHDLYALSEQQKAACVVLNPEKSHPYIEDMEMFLSPLPVVLEWHCMMCEQFFHGKKFCEACGTGIYCRAVCTKSVYSYQPDLFQDCGGAST,soluble
8,MGTRSPHIVLRNATYLNSYIREWMQANIWIYDDRIIYVGEKLPEQLHECEVIDCDGKYVVPSYIEPHAHPYQLYNPETLANHAMQFGTTTFINDNLEHHHHHH,soluble
9,MSLSKNNETLEALSKEYRDTIPADLRKTNTFDWYLQQLYDEPKIARNAHQRVADMFDYYGKSYDEEAGVVEYELASEDPLHDGENTFYGRVIHEAMHEFVNKVKSGARGLGPEKRIKLLLGPVGSGKSDFDRQVRRYFEDYTSRDEGRMYTFRWTNLCDVIHDQDPADDVVRSPMNQDPLVLLPQAQRDKVIEDINAELDAPYTIRNEQSLDPASEFYMDRLLAEYDDDLQAVLENHVEIVRFVADENQRRGIETFEPKDKKNQDETELTGDVNYSKIAIYGESDPRAFDYSGAFCNANRGIFSGEELLKLQREFLYDFLHASQEQTIKPKNNPRIDIDQVIVGRTNMPEYRDKKGDEKMEAFNDRTKRIDFPYVLQYEAEANIYQKMLRNADLPDIQVEPHTLEMAGLFGVLTRIEEPDNESIDLVQKAKAYNGEIDEADDVDVKKLREEAEKMADIGEGMDGVSPRFIGDEIAEAIMDSMHRSRDFLSPLTTFNHLEGNLENHGSIDEESFSKYYRFLELVREEYKERAIEDVRHALAYDMDEIQRQGEKYMDHVMAYIDDATVEDELTGREQEPDEQFLRSVEEKLNLPEDRKDDFRQEVSNWVSRRAREGDTFNPQDNDRLRRALERKLWEDKKHNINFSALVSSSEMDDEERNQWVDALIEQGYSEEGAKEVLEFAGAEVAKSEMEEEGHHHHHH,soluble
10,MRPPPFPKPAHPEEALALQRALAKKVRLAGSLEGVRRIAALDASHKRGRPLVAVALLYDLEKGPLHVATALLPEEALFPYVPGLLSFREAPAYLEALAALPEAPEALLVDGQGVAHPRGLGIASHLGVHLDLPSVGVAKRLLYGRPEAPLPEEKGAAVRLLAPDGRPLGYVYRSRTGVKPLYVSPGHRVGLEEALRFVRRLPTRFRLPEPLRLAHLEAGRALKALDAAALEHHHHHH,not soluble
11,MGSDKIHHHHHHMLCSRYFTSSLFLWGEALPTLLEEFLNEVEKMLKNQVNTRRIHQLLKELDDPLLENKDLEEKLQAFLDYVKEIPNLPEARKRYRIQKSLEMIEKLRSWFLIDYLECSGEEVDLSTDIQYAKGVGPNRKKKLKKLGIETLRDLLEFFPRDYEDRRKIFKLNDLLPGEKVTTQGKIVSVETKKFQNMNILTAVLSDGLVHVPLKWFNQDYLQTYLKQLTGKEVFVTGTVKSNAYTGQYEIHNAEVTPKEGEYVRRILPIYRLTSGISQKQMRKIFEENIPSLCCSLKETLPERILEKRKLLGVKDAYYGMHFPKTFYHLEKARERLAYEELFVLQLAFQKIRKEREKHGGIPKKIEGKLAEEFIKSLPFKLTNAQKRAHQEIRNDMISEKPMNRLLQGDVGSGKTVVAQLAILDNYEAGFQTAFMVPTSILAIQHYRRTVESFSKFNIHVALLIGATTPSEKEKIKSGLRNGQIDVVIGTHALIQEDVHFKNLGLVIIDEQHRFGVKQREALMNKGKMVDTLVMSATPIPRSMALAFYGDLDVTVIDEMPPGRKEVQTMLVPMDRVNEVYEFVRQEVMRGGQAFIVYPLIEESDKLNVKSAVEMYEYLSKEVFPEFKLGLMHGRLSQEEKDRVMLEFAEGRYDILVSTTVIEVGIDVPRANVMVIENPERFGLAQLHQLRGRVGRGGQEAYCFLVVGDVGEEAMERLRFFTLNTDGFKIAEYDLKTRGPGEFFGVKQHGLSGFKVADLYRDLKLLEWAREDVQEIDVEGIELPEEIKLIEVG,not soluble
12,MNTAHGSDVTRPLDWLVSNFASDVPGVSHAVLVSADGLLMAASAHLPIDRAEQLAAVTSGLASLSAGVSRLFEGGGVLQSVVEMQHGYLLLMSVGDGSHLATLTDAECDIGQVGYEMAILVDRVGASVQATARTPQGL,not soluble
13,MTEKKERIDVHAYLAEFDDIPGTRVFTAQRARKGYNLNQFAMSLMKAENRERFKADESAYLDEWNLTPAAKAAVLARDYNAMIDEGGNVYFLSKLFSTDGKSFQFAAGSMTGMTQEEYAQMMIDGGRSPAGVRSIKGGY,soluble
14,MSLSTQSEAALEAGLIATLRQMDYEYVQIVEEDNLYANFKRQLEIHNRKRLEEHGRTEFTAEEFEKILIYLEGGTRFEKAKKLRDLYPLDTADGQRIWVEFLNRQQWCQNEFQVSNQITVEGRKKCRYDVTILINGLPLVQIELKRRGVELKQAYNQIQRYHKTSFHGLFDYIQLFVISNGVNTRYFANNPNSGYKFTFNWTDAANHPFNELDKFAVFFLEKCTLGKIIGKYIVLHEGDKCLMVLRPYQFYAVEKILDRVQNSNDNGYIWHTTGAGKTLTSFKAAQLVSELDDVDKVMFVVDRHDLDTQTQSEYEAFEPGAVDSTDNTDELVKRLQSNSKIIITTIQKLNAAVSKTWYSSKIDAIRHSRIVMIFDECHRSHFGDSHKKIMKFFGNAQIFGFTGTPIFTENAVDGHTTKEIFGNCLHKYLIKDAIADENVLGFLVEYYHGNEIVDNDNQARMEEIAKFILNNFNKSTFDGEFDALFAVQSVPMLIRYYKIFRSLNPKIRIGAVFTYAANNSQDDEQTGMGTGQYAKESVGEADELQAIMDDYNENFGTSFTTENFRAYYDDINLRMKKKKADMKPLDLCLVVGMFLTGFDSKKLNTLYVDKNMEYHGLLQAFSRTNRVLNEKKRFGKIVCFRDLKNNVDTSIKLFSNSDNPEDIVRPPFEKVKQEYKSLSTDFLQKYPTPSSIDFLQSENDKKNFVLAFRDIIRKHAEIQIYEDYSEDAEDLGMTEQQFNDYKSKYLDITVGFIDPPAAPSTVAEDPVPYGNNQGLEDIDFCLELLHSDIINVAYILALINDLDPYSDDYSEKRQNIIDTMIKDAGMRGKAKLIDGFIKKNVDEDKENFMNGRNKADGTNELEERLNQYIVSERNKAVNDLADEEQISAEVLNHYMKEYDYLQKEQPEIIQKALKEKHLGLIKTRRALTRIMERLRSIIKTFNEGHHHHHH,soluble
15,MNPVKNRSEVLFIYDVKWANPNGDPLDENRPRFDEETSRLFVTDVRLKRTVRDYLAECYDETLWVTGEAVVPEDRVKELGIKDVNDACQKCIDIRLFGAVIPQSKKGAMESSITGPVQFRYGTSLHRVKLMTIQGTAAFATENSKQRSFREDQVVPYALIAFYGVINQNSAKFTGLTEEDVSKLLEGIWMGTKNLITRSKMEHNPRLLMRVVYKEGVNYHSGELDYLVKVVSEKEDEEIRDISELKLDVTELKQVLESLKDKIERIEYSVDNRLKLAENGEEKPFEEIFGGFQLVKLEW,not soluble
16,MKSFALVRADDSDKVKIALHDLERYGHIQFSATPKCIEPNYADELLVSVMGVSLKSKCNSAALVELNNHAGAAISRLKKIHPPAHIIIISPRHKMFEELAGKFPKYPEFDRTFNHQKSPQGLDMIQEKGESSNA,not soluble
17,MGSDKIHHHHHHMNHLVEVQHMERMNRTNHIQKLDKERYLNLKTGEIGEFKQGEVRSDSLNSLRQTFKKLRYLINTNYVGAGNELFITLTYKENMTDVKRLYSDFKKFMLKFRYKYEKQYGSIDYMTVVEPQERGAWHHHLLVRFNDMTGSKMYIPNNDVAALWGHGFTNMHSLNGVDNIGAYLSAYLADVELTTDNVFLAFDDNVEVVSKVVDGQEKKFIKGGRLHLYPSGMNLYRKSKGIKMPVREEMRYGDIKKVVGSEKPHYVKTLVVEQDDFKNTITYEQYNTKR,not soluble
